Values of other authors in PMC9772450, “Gel-forming antagonist provides a lasting effect on CGRP-induced vasodilation” (Frontiers in Pharmacology, 2022).

B1: erenumab: anti-CGRP receptor antibody (antibody, chains of the INN, looked up, V domains shown)
VH: QVQLVESGGGVVQPGRSLRLSCAASGFTFSSFGMHWVRQAPGKGLEWVAVISFDGSIKYSVDSVKGRFTISRDNSKNTLFLQMNSLRAEDTAVYYCARDRLNYYDSSGYYHYKYYGMAVWGQGTTVTVSS
VL: QSVLTQPPSVSAAPGQKVTISCSGSSSNIGNNYVSWYQQLPGTAPKLLIYDNNKRPSGIPDRFSGSKSGTSTTLGITGLQTGDEADYYCGTWDSRLSAVVFGGGTKLTVL
B2: eptinezumab: anti-CGRP antibody (antibody, chains of the INN, looked up, V domains shown)
VH: EVQLVESGGGLVQPGGSLRLSCAVSGIDLSGYYMNWVRQAPGKGLEWVGVIGINGATYYASWAKGRFTISRDNSKTTVYLQMNSLRAEDTAVYFCARGDIWGQGTLVTVSS
VL: QVLTQSPSSLSASVGDRVTINCQASQSVYHNTYLAWYQQKPGKVPKQLIYDASTLASGVPSRFSGSGSGTDFTLTISSLQPEDVATYYCLGSYDCTNGDCFVFGGGTKVEIK
B3: galcanezumab: anti-CGRP antibody (antibody, chains of the INN, looked up, V domains shown)
VH: QVQLVQSGAEVKKPGSSVKVSCKASGYTFGNYWMQWVRQAPGQGLEWMGAIYEGTGKTVYIQKFADRVTITADKSTSTAYMELSSLRSEDTAVYYCARLSDYVSGFGYWGQGTTVTVSS
VL: DIQMTQSPSSLSASVGDRVTITCRASKDISKYLNWYQQKPGKAPKLLIYYTSGYHSGVPSRFSGSGSGTDFTLTISSLQPEDFATYYCQQGDALPPTFGGGTKVEIK

Assays:
[1] = antibodies; ref https://go.drugbank.com/drugs
[2] = tested on: capsaicin-induced dermal blood flow; settings: in patients; ref Vu et al., 2017
Excerpt: It is known that anti-CGRP gepants could occupy a binding site close to the interface of the N-terminal domains of CLR and RAMP1, and act by allosteric regulation ([Miller et al., 2010]). Although the gepants compounds have low IC50 values in receptor activation assays in vitro, it is well documented that gepants need high concentrations to bloc ...

[3] = tested on: migraine; settings: 31% at baseline; 40–50% in the placebo group; ref Cady et al., 2022
Excerpt: Migraine is a common complex neurovascular disorder that is manifested as episodic and predominantly unilateral throbbing headache with hypersensitivity to light, sound, and movement ([Erdener and Dalkara, 2014]; [Schuster and Rapoport, 2016]). According to the World Health Organization, 324 million people worldwide suffer from incapacitating migraine in 2008. In ∼ one-third of patients, migraine headaches are accompanied by an aura involving neurological symptoms such as transient visual, sensory, or motor disturbances ([Goadsby et al., 2002]). In the US, it was reported that 15% of Americans ...

| Molecule | Volume of distribution [1] [L] | Concentration required for 50% inhibition of capsaicin-induced dermal blood flow [2] [mg/L] | Concentration required for 99% inhibition of capsaicin-induced dermal blood flow [2] [mg/L] | Proportion of patients with moderate/maximal optimization at week four [3] [%] |
| --- | --- | --- | --- | --- |
| B1 | 3.86 | 0.255 | 1.134 | – |
| B2 | – | – | – | 58 |
| B3 | 7.3 | – | – | – |
